According to article PMC5987543:

Biological target: α-synuclein, P37840
Test: SPR; Biacore X100; monomeric α-syn immobilised on a streptavidin-coated chip; S100A9 injected at increasing concentrations in a single cycle; HBS-P+ (10 mM HEPES, 150 mM NaCl, 0.001% P20), pH 7.4, 25 °C; steady-state fit Rc = C*Rmax/(Kd + C); apparent; three repeats
Conditions: remark: other sources report otherwise

Kd: 5 µM
B1: S100A9, P06702 1-114 (natural protein)
chain: MTCKMSQLERNIETIINTFHQYSVKLGHPDTLNQGEFKELVRKDLQNFLKKENKNEKVIEHIMEDLDTNADKQLSFEEFIMLMARLTWASHEKMHEGDEGPGHHHKPGLGEGTP
